Assay [1] has as its target TL-M2e5x fusion protein (Toll-like receptor ligand sequence plus five tandem heterologous M2e domain). Description: ELISA on VLPs with 14C2. (In an ELISA, binding on a coated surface is turned into a signal by an enzyme label.)
Assay [2] shares this target. Kind of assay: ELISA on VLPs and virus with 14C2.

With “Influenza A virus M2 monoclonal antibody 14C2 (Abcam Inc., Cambridge, Mass.)”, in assay [1], the fold reactivity relative to M2WT VLP is above 60 fold. Besides, the fold reactivity relative to A/Philippines/2/82 virus in assay [2] was 500 fold.

These data come from patent US20150273048A1.
